{"source": "the supplement of paper PMC9112550", "about": "“Optimization of the antimicrobial peptide Bac7 by deep mutational scanning” (BMC Biology, 2022);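 also: peptides expressed intracellularly from a pBAD plasmid library in pooled LB shake-flask culture, induced with 0.3% L-arabinose, DNA abundance read by NGS, three biological replicates, DESeq2 with apeglm shrinkage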"}
{"system": "Escherichia coli TOP10", "assay": "shrunken log2 fold change of peptide-encoding DNA abundance (4.5 h post-induction vs induction); higher = less antimicrobial activity (less host growth inhibition)", "details": "time post-induction: 4.5 h; library: site-saturation at positions 5, 18, 19, 20"}
{"sequence": "RRIRPRPPRLPRPRPRPVTTPRP", "shrunken log2 fold change": -0.0302}
{"sequence": "RRIRKRPPRLPRPRPRPEEKPRP", "shrunken log2 fold change": 0.0431}
{"sequence": "RRIRKRPPRLPRPRPRPSPGPRP", "shrunken log2 fold change": 0.26}
{"sequence": "RRIRNRPPRLPRPRPRPRDQPRP", "shrunken log2 fold change": -0.0345}
{"sequence": "RRIRIRPPRLPRPRPRPSLAPRP", "shrunken log2 fold change": 0.0113}
{"sequence": "RRIRWRPPRLPRPRPRPGMTPRP", "shrunken log2 fold change": 0.167}
{"sequence": "RRIRGRPPRLPRPRPRPSTGPRP", "shrunken log2 fold change": -0.0729}
{"sequence": "RRIRGRPPRLPRPRPRPVEFPRP", "shrunken log2 fold change": 0.596}
{"sequence": "RRIRDRPPRLPRPRPRPKWAPRP", "shrunken log2 fold change": 0.0411}
{"sequence": "RRIRCRPPRLPRPRPRPNQGPRP", "shrunken log2 fold change": -0.203}
{"sequence": "RRIRLRPPRLPRPRPRPEYSPRP", "shrunken log2 fold change": -0.279}
{"sequence": "RRIRERPPRLPRPRPRPRQEPRP", "shrunken log2 fold change": 0.315}
{"sequence": "RRIRMRPPRLPRPRPRPCSKPRP", "shrunken log2 fold change": -0.00101}
{"sequence": "RRIRFRPPRLPRPRPRPQSGPRP", "shrunken log2 fold change": -0.036}
{"sequence": "RRIRTRPPRLPRPRPRPQKAPRP", "shrunken log2 fold change": 0.00748}
{"sequence": "RRIRWRPPRLPRPRPRPVSGPRP", "shrunken log2 fold change": -0.0172}
{"sequence": "RRIRYRPPRLPRPRPRPEWAPRP", "shrunken log2 fold change": 0.193}
{"sequence": "RRIRKRPPRLPRPRPRPRDNPRP", "shrunken log2 fold change": 0.15}
{"sequence": "RRIRWRPPRLPRPRPRPMADPRP", "shrunken log2 fold change": 0.0452}
{"sequence": "RRIRWRPPRLPRPRPRPTVDPRP", "shrunken log2 fold change": 0.296}
{"sequence": "RRIRFRPPRLPRPRPRPWIVPRP", "shrunken log2 fold change": -0.242}
{"sequence": "RRIRGRPPRLPRPRPRPTLFPRP", "shrunken log2 fold change": 0.824}
{"sequence": "RRIRYRPPRLPRPRPRPFEDPRP", "shrunken log2 fold change": -0.057}
{"sequence": "RRIRSRPPRLPRPRPRPIMNPRP", "shrunken log2 fold change": -0.0954}
{"sequence": "RRIRDRPPRLPRPRPRPKRMPRP", "shrunken log2 fold change": 0.0969}
{"sequence": "RRIRKRPPRLPRPRPRPMMNPRP", "shrunken log2 fold change": 0.154}
{"sequence": "RRIRHRPPRLPRPRPRPCKHPRP", "shrunken log2 fold change": -1.38}
{"sequence": "RRIRLRPPRLPRPRPRPGRWPRP", "shrunken log2 fold change": 0.411}
{"sequence": "RRIRDRPPRLPRPRPRPHYRPRP", "shrunken log2 fold change": -0.562}
{"sequence": "RRIRPRPPRLPRPRPRPRSVPRP", "shrunken log2 fold change": 0.0746}
{"sequence": "RRIRVRPPRLPRPRPRPIVWPRP", "shrunken log2 fold change": -0.328}
{"sequence": "RRIRKRPPRLPRPRPRPKTCPRP", "shrunken log2 fold change": 0.209}
{"sequence": "RRIRGRPPRLPRPRPRPNMTPRP", "shrunken log2 fold change": 1.63}
{"sequence": "RRIRFRPPRLPRPRPRPVRLPRP", "shrunken log2 fold change": 0.0919}
{"sequence": "RRIRERPPRLPRPRPRPPEEPRP", "shrunken log2 fold change": 0.499}
{"sequence": "RRIRHRPPRLPRPRPRPYAEPRP", "shrunken log2 fold change": -0.0381}
{"sequence": "RRIRMRPPRLPRPRPRPGQYPRP", "shrunken log2 fold change": -0.00987}
{"sequence": "RRIRERPPRLPRPRPRPYVMPRP", "shrunken log2 fold change": -0.401}
{"sequence": "RRIRARPPRLPRPRPRPSVYPRP", "shrunken log2 fold change": -0.138}
{"sequence": "RRIRMRPPRLPRPRPRPPYTPRP", "shrunken log2 fold change": -0.0678}
{"sequence": "RRIRYRPPRLPRPRPRPSTAPRP", "shrunken log2 fold change": -0.0926}
{"sequence": "RRIRARPPRLPRPRPRPLATPRP", "shrunken log2 fold change": 0.647}
{"sequence": "RRIRRRPPRLPRPRPRPEIEPRP", "shrunken log2 fold change": 0.216}
{"sequence": "RRIRVRPPRLPRPRPRPLVHPRP", "shrunken log2 fold change": -0.145}
{"sequence": "RRIRLRPPRLPRPRPRPAKEPRP", "shrunken log2 fold change": -0.049}
{"sequence": "RRIRYRPPRLPRPRPRPGIEPRP", "shrunken log2 fold change": -0.276}
{"sequence": "RRIRQRPPRLPRPRPRPFKAPRP", "shrunken log2 fold change": -0.059}
{"sequence": "RRIRFRPPRLPRPRPRPKAAPRP", "shrunken log2 fold change": 0.264}
{"sequence": "RRIRDRPPRLPRPRPRPDYGPRP", "shrunken log2 fold change": -0.181}
{"sequence": "RRIRMRPPRLPRPRPRPAYTPRP", "shrunken log2 fold change": -0.0493}
{"sequence": "RRIRCRPPRLPRPRPRPHTAPRP", "shrunken log2 fold change": -0.457}
{"sequence": "RRIRRRPPRLPRPRPRPWKCPRP", "shrunken log2 fold change": -0.0487}
{"sequence": "RRIRSRPPRLPRPRPRPENGPRP", "shrunken log2 fold change": 0.0751}
{"sequence": "RRIRPRPPRLPRPRPRPVGIPRP", "shrunken log2 fold change": 0.0618}
{"sequence": "RRIRFRPPRLPRPRPRPIKAPRP", "shrunken log2 fold change": -0.128}
{"sequence": "RRIRFRPPRLPRPRPRPGATPRP", "shrunken log2 fold change": 0.357}
{"sequence": "RRIRFRPPRLPRPRPRPGCDPRP", "shrunken log2 fold change": 0.106}
{"sequence": "RRIRQRPPRLPRPRPRPYTTPRP", "shrunken log2 fold change": -0.0148}
{"sequence": "RRIRIRPPRLPRPRPRPEFNPRP", "shrunken log2 fold change": -0.0922}
{"sequence": "RRIRSRPPRLPRPRPRPISFPRP", "shrunken log2 fold change": -0.216}
{"sequence": "RRIRQRPPRLPRPRPRPMFQPRP", "shrunken log2 fold change": -0.467}
{"sequence": "RRIRYRPPRLPRPRPRPNANPRP", "shrunken log2 fold change": -2}
{"sequence": "RRIRRRPPRLPRPRPRPAGLPRP", "shrunken log2 fold change": 0.153}
{"sequence": "RRIRWRPPRLPRPRPRPKLFPRP", "shrunken log2 fold change": 0.589}
{"sequence": "RRIRIRPPRLPRPRPRPFLCPRP", "shrunken log2 fold change": -0.628}
{"sequence": "RRIRHRPPRLPRPRPRPQMWPRP", "shrunken log2 fold change": "2.46e-05"}
{"sequence": "RRIRIRPPRLPRPRPRPIKIPRP", "shrunken log2 fold change": -0.0548}
{"sequence": "RRIRTRPPRLPRPRPRPIEQPRP", "shrunken log2 fold change": -0.00141}
{"sequence": "RRIRRRPPRLPRPRPRPEYVPRP", "shrunken log2 fold change": 0.0703}
{"sequence": "RRIRDRPPRLPRPRPRPGCFPRP", "shrunken log2 fold change": 0.565}
{"sequence": "RRIRSRPPRLPRPRPRPNTLPRP", "shrunken log2 fold change": -0.373}
{"sequence": "RRIRERPPRLPRPRPRPIEGPRP", "shrunken log2 fold change": 0.0039}
{"sequence": "RRIRKRPPRLPRPRPRPHVKPRP", "shrunken log2 fold change": -0.258}
{"sequence": "RRIRNRPPRLPRPRPRPIGMPRP", "shrunken log2 fold change": -0.0748}
{"sequence": "RRIRRRPPRLPRPRPRPVKGPRP", "shrunken log2 fold change": -0.0795}
{"sequence": "RRIRFRPPRLPRPRPRPDIVPRP", "shrunken log2 fold change": -0.0567}
{"sequence": "RRIRMRPPRLPRPRPRPQFNPRP", "shrunken log2 fold change": -0.661}
{"sequence": "RRIRDRPPRLPRPRPRPKGDPRP", "shrunken log2 fold change": 0.0039}
{"sequence": "RRIRWRPPRLPRPRPRPRPEPRP", "shrunken log2 fold change": 0.502}
{"sequence": "RRIRRRPPRLPRPRPRPVSPPRP", "shrunken log2 fold change": 0.0657}
{"sequence": "RRIRHRPPRLPRPRPRPLFRPRP", "shrunken log2 fold change": 0.0546}
{"sequence": "RRIRSRPPRLPRPRPRPWGSPRP", "shrunken log2 fold change": -0.0403}
{"sequence": "RRIRRRPPRLPRPRPRPALYPRP", "shrunken log2 fold change": 0.225}
{"sequence": "RRIRQRPPRLPRPRPRPFIIPRP", "shrunken log2 fold change": 0.043}
{"sequence": "RRIRVRPPRLPRPRPRPPMAPRP", "shrunken log2 fold change": 0.228}
{"sequence": "RRIRYRPPRLPRPRPRPTRTPRP", "shrunken log2 fold change": -0.0719}
{"sequence": "RRIRFRPPRLPRPRPRPVWHPRP", "shrunken log2 fold change": -0.0142}
{"sequence": "RRIRSRPPRLPRPRPRPAPSPRP", "shrunken log2 fold change": 1.24}
{"sequence": "RRIRGRPPRLPRPRPRPLVLPRP", "shrunken log2 fold change": 0.401}
{"sequence": "RRIRGRPPRLPRPRPRPKVWPRP", "shrunken log2 fold change": 0.665}
{"sequence": "RRIRCRPPRLPRPRPRPKFRPRP", "shrunken log2 fold change": -0.375}
{"sequence": "RRIRVRPPRLPRPRPRPLTKPRP", "shrunken log2 fold change": 0.044}
{"sequence": "RRIRCRPPRLPRPRPRPRGHPRP", "shrunken log2 fold change": 0.071}
{"sequence": "RRIRQRPPRLPRPRPRPQQTPRP", "shrunken log2 fold change": 0.178}
{"sequence": "RRIRERPPRLPRPRPRPMKVPRP", "shrunken log2 fold change": -0.0915}
{"sequence": "RRIRGRPPRLPRPRPRPQGPPRP", "shrunken log2 fold change": 0.224}
{"sequence": "RRIRKRPPRLPRPRPRPAPHPRP", "shrunken log2 fold change": 0.79}
{"sequence": "RRIRVRPPRLPRPRPRPGQIPRP", "shrunken log2 fold change": -0.0586}
{"sequence": "RRIRDRPPRLPRPRPRPPDYPRP", "shrunken log2 fold change": -0.0704}
{"sequence": "RRIRIRPPRLPRPRPRPSKKPRP", "shrunken log2 fold change": -0.229}
{"sequence": "RRIRLRPPRLPRPRPRPRPRPRP", "shrunken log2 fold change": 0.823}
{"sequence": "RRIRDRPPRLPRPRPRPDHMPRP", "shrunken log2 fold change": -0.0107}
{"sequence": "RRIRKRPPRLPRPRPRPCCYPRP", "shrunken log2 fold change": 0.0681}
{"sequence": "RRIRKRPPRLPRPRPRPRGAPRP", "shrunken log2 fold change": 0.891}
{"sequence": "RRIRLRPPRLPRPRPRPAAMPRP", "shrunken log2 fold change": 0.158}
{"sequence": "RRIRERPPRLPRPRPRPMWRPRP", "shrunken log2 fold change": -0.0079}
{"sequence": "RRIRPRPPRLPRPRPRPKHYPRP", "shrunken log2 fold change": -0.529}
{"sequence": "RRIRVRPPRLPRPRPRPQHWPRP", "shrunken log2 fold change": 0.171}
{"sequence": "RRIRDRPPRLPRPRPRPIGDPRP", "shrunken log2 fold change": -0.00843}
{"sequence": "RRIRWRPPRLPRPRPRPCFGPRP", "shrunken log2 fold change": -0.119}
{"sequence": "RRIRMRPPRLPRPRPRPRSQPRP", "shrunken log2 fold change": 0.108}
{"sequence": "RRIRFRPPRLPRPRPRPWCGPRP", "shrunken log2 fold change": -0.142}
{"sequence": "RRIRIRPPRLPRPRPRPWKFPRP", "shrunken log2 fold change": -0.158}
{"sequence": "RRIRGRPPRLPRPRPRPEKMPRP", "shrunken log2 fold change": 0.59}
{"sequence": "RRIRVRPPRLPRPRPRPYQFPRP", "shrunken log2 fold change": -0.0508}
{"sequence": "RRIRRRPPRLPRPRPRPRMIPRP", "shrunken log2 fold change": -0.136}
{"sequence": "RRIRQRPPRLPRPRPRPHHPPRP", "shrunken log2 fold change": 0.00343}
{"sequence": "RRIRRRPPRLPRPRPRPLPFPRP", "shrunken log2 fold change": -0.344}
{"sequence": "RRIRSRPPRLPRPRPRPIFYPRP", "shrunken log2 fold change": -0.387}
{"sequence": "RRIRDRPPRLPRPRPRPKLTPRP", "shrunken log2 fold change": -0.0121}
{"sequence": "RRIRMRPPRLPRPRPRPTGWPRP", "shrunken log2 fold change": 0.687}
{"sequence": "RRIRQRPPRLPRPRPRPPFAPRP", "shrunken log2 fold change": 0.742}
{"sequence": "RRIRTRPPRLPRPRPRPKPWPRP", "shrunken log2 fold change": 0.363}
{"sequence": "RRIRRRPPRLPRPRPRPKKAPRP", "shrunken log2 fold change": -0.00843}
{"sequence": "RRIRPRPPRLPRPRPRPQHAPRP", "shrunken log2 fold change": 0.041}
